# Measurements from patent US9549967B2, “Regulation of sodium channels by PLUNC proteins” (The University of North Carolina at Chapel Hill, priority 2009, dated 2017).
# T1: αβγENaC (Rattus norvegicus, UniProt P37089+P37090+P37091)
# T1 construct: expressed in transfected cells; host or cells: Xenopus laevis oocytes (cRNA injection)
# T1 sequence (P37089 1-698): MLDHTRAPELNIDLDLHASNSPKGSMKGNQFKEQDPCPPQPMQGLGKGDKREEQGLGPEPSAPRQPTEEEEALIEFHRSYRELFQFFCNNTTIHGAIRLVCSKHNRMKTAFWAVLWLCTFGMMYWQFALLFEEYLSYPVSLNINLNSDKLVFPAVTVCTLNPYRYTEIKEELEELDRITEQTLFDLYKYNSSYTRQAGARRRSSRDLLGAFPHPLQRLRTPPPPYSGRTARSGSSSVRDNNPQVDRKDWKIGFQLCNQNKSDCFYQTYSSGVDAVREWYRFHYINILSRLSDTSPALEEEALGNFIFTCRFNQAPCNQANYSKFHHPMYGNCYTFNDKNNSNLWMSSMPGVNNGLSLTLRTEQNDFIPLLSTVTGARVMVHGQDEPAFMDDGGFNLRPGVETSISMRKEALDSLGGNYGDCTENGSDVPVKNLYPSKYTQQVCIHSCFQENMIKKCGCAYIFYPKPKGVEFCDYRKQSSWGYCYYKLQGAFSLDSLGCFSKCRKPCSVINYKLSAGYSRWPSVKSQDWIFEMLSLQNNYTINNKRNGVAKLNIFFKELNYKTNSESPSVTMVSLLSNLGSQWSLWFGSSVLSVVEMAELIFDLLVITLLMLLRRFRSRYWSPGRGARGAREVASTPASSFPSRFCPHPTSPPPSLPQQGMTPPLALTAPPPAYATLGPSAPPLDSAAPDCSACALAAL
# T1 sequence (P37090 1-638): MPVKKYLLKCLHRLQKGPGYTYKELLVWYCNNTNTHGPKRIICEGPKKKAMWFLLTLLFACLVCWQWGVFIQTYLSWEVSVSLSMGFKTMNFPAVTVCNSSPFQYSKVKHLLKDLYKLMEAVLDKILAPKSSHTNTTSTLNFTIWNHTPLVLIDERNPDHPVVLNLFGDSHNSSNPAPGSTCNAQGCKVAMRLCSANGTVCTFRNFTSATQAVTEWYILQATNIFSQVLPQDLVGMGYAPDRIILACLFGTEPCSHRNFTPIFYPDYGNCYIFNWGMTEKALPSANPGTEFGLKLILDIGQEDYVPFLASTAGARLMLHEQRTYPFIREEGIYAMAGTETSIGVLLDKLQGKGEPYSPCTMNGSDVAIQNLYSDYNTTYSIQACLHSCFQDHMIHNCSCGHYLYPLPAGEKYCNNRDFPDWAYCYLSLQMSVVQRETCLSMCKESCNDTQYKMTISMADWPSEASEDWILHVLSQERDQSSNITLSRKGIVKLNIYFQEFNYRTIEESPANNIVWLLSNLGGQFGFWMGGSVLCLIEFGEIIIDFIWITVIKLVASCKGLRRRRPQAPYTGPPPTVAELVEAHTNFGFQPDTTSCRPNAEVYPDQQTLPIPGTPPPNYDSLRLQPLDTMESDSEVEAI
# T1 sequence (P37091 1-650): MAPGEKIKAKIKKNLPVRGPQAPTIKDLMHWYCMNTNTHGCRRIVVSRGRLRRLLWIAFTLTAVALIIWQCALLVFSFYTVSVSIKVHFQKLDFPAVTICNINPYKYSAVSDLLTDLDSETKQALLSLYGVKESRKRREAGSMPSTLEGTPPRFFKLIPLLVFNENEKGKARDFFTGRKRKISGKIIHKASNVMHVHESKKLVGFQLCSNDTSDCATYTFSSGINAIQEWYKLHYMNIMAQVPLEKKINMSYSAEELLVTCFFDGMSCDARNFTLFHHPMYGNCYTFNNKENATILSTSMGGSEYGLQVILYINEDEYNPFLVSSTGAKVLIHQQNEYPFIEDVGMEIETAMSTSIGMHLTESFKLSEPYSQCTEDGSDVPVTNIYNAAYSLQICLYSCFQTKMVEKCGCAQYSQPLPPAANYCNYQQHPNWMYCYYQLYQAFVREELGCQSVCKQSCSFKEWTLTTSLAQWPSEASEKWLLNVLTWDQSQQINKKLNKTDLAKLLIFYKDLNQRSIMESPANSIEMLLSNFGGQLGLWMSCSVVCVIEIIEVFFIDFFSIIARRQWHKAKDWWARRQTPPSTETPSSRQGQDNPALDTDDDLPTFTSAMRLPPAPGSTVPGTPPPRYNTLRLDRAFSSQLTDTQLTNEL
# Target: T1, αβγENaC
# Assay: Amiloride-sensitive whole cell current in Xenopus laevis oocytes expressing ENaC (two electrode voltage clamp)
# Format: cell-based
# Protocol: Oocyte studies. Xenopus laevis oocytes were harvested and injected as described (Donaldson, et al., J. Biol. Chem. 277:8338 (2002)). Defolliculated healthy stage V-VI oocytes were injected with 0.3 ng of cRNA of each ENaC subunit. Injected oocytes were kept in modified Barth's saline (in mM: 88 NaCl, 1 KCl, 2.4 NaHCO3, 0.3 Ca(NO3)2, 0.41 CaCl2, 0.82 MgSO4, and 15 HEPES, adjusted to pH 7.35 with Tris). Oocytes were studied 24 hr after injection using the two electrode voltage clamp technique as previously described (Donaldson, et al., J. Biol. Chem. 277:8338 (2002)). Oocytes were clamped at a holding potential of […]. The change in amiloride-sensitive whole cell current as an indicator of ENaC activity was determined by subtracting the corresponding current value measured in the presence of 10 μM amiloride from that measured before the application of amiloride.
molecule,measurement,setting,value
trypsin [reference compound],ENaC activity on trypsin exposure,oocytes,increased ENaC activity
"SPLUNC1: human SPLUNC1, 256 amino acid secreted PLUNC protein (SEQ ID NO:1); rSPLUNC1 = V5/6His-tagged protein purified from HEK293 media (protein, listed as Homo sapiens, V5/6His tag, rSPLUNC1 = V5/6His-tagged protein purified from HEK293 media) MFQTGGLIVFYGLLAQTMAQFGGLPVPLDQTLPLNVNPALPLSPTGLAGSLTNALSNGLLSGGLLGILENLPLLDILKPGGGTSGGLLGGLLGKVTSVIPGLNNIIDIKVTDPQLLELGLVQSPDGHRLYVTIPLGIKLQVNTPLVGASLLRLAVKLDITAEILAVRDKQERIHLVLGDCTHSPGSLQISLLDGLGPLPIQGLLDSLTGILNKVLPELVQGNVCPLVNEVLRGLDITLVHDIVNMLIHGLQFVIKV",ability of CAP1 and CAP2 to activate ENaC,ENaC ± SPLUNC1 co-expressed with prostasin (CAP1) and CAP2,significantly reduced
same,inhibition of ENaC by full-length and truncated SPLUNC1,"oocyte current inhibition assay, pH 7.4, all p<0.0001",Significant inhibition
same,trypsin stimulation of ENaC activity,trypsin-exposed oocytes ± SPLUNC1,attenuated
